# Biological target: thrombin (UniProt P00734;P00734 328-363;364-622)
# Test: 19F NMR
binder,measurement,value
"GGTTGGTGTGGTTGG (structured_DNA, dT9 replaced by 5-[{3,5-bis(trifluoromethyl)phenyl}ethynyl]-2'-deoxyuridine) [T9 (19F-labeled TBA)]",binding result,binds
